Assay results reported in publication PMC7588459 (Scientific Reports, 2020).

Experiments:
[1] = target: T1, Nipah virus attachment (receptor-binding) glycoprotein (GP), wild type (Nipah virus; strain of the assayed …, UniProt Q9IH62); assay: BLI; conditions: both partners purified
T1 construct: source: HEK 293-F FreeStyle, transiently transfected, purified from supernatant (Ni-NTA)

[2] = target: T1, Nipah virus attachment …; assay: ELISA; conditions: both partners purified

B1: monoclonal antibody m102.4 (wild type) (antibody, V domains shown)
VH: EVQVIQSGADVKKPGSSVKVSCKSSGGTFSKYAINWVRQAPGQGLEWMGGIIPILGIANYAQKFQGRVTITTDESTSTAYMELSSLRSEDTAVYYCARGWGREQLAPHPSQYYYYYYGMDVWGQGTTVTVSS
VL: EIVMTQSPGTLSLAPGERATLSCWASQSVRNNYLAWYQQKPGQAPRLVIYNGSTRATGIPDRFSGSGSGTDFTLTISRLDPEDFAVYYCQQYGNSRRVTFGGGTKVEIK
notes: also called wild-type Nipah antibody; anti-Nipah mAb
Kd [1]: 0.07 ± 0.01 nM
koff [1]: 4.53e-05 s⁻¹
kon [1]: 646000 M⁻¹ s⁻¹
Kd [2]: 0.12 nM
